From article PMC3834829, “A signature motif mediating selective interactions of BCL11A with the NR2E/F subfamily of orphan nuclear receptors” (Nucleic Acids Research, 2013)

B1: AAD-COUP-TFII-LBD-(144–414) [not stated] / LexA-BCL11A-(310–325) [not stated] (parent complex)
chain 1: MRREAVQRGRMPPTQPTHGQFALTNGDPLNCHSYLSGYISLLLRAEPYPTSRFGSQCMQPNNIMGIENICELAARMLFSAVEWARNIPFFPDLQITDQVALLRLTWSELFVLNAAQCSMPLHVAPLLAAAGLHASPMSADRVVAFMDHIRIFQEQVEKLKALHVDSAEYSCLKAIVLFTSDACGLSDVAHVESLQEKSQCALEEYVRSQYPNQPTRFGKLLLRLPSLRTVSSSVIEQLFFVRLVGKTPIETLIRDMLLSGSSFNWPYMAIQ
chain 2: PPAMDFSRRLRELAGN
B2: AAD-COUP-TFII-LBD-(144–414) [not stated] / LexA-BCL11A-(651–670) [not stated] (parent complex)
chain 1: B1 chain 1
chain 2: NTENVYSQWLAGYAASRQLK
B3: LexA-BCL11A-(651–670) [not stated] / AAD-EAR2-LBD-(121–399) [not stated] (parent complex)
chain 1: NTENVYSQWLAGYAASRQLK
chain 2: MRKEAVQRGRIPHSLPGAVAASSGSPPGSALAAVASGGDLFPGQPVSELIAQLLRAEPYPAAAGRFGAGGGAAGAVLGIDNVCELAARLLFSTVEWARHAPFFPELPVADQVALLRLSWSELFVLNAAQAALPLHTAPLLAAAGLHAAPMAAERAVAFMDQVRAFQEQVDKLGRLQVDSAEYGCLKAIALFTPDACGLSDPAHVESLQEKAQVALTEYVRAQYPSQPQRFGRLLLRLPALRAVPASLISQLFFMRLVGKTPIETLIRDMLLSGSTFNWP
B4: LexA-BCL11A-(310–325) [not stated] / AAD-PNR-LBD-(131–410) [not stated] (parent complex)
chain 1: PPAMDFSRRLRELAGN
chain 2: HLDSMESNTESRPESLVAPPAPAGRSPRGPTPMSAARALGHHFMASLITAETCAKLEPEDADENIDVTSNDPEFPSSPYSSSSPCGLDSIHETSARLLFMAVKWAKNLPVFSSLPFRDQVILLEEAWSELFLLGAIQWSLPLDSCPLLAPPEASAAGGAQGRLTLASMETRVLQETISRFRALAVDPTEFACMKALVLFKPETRGLKDPEHVEALQDQSQVMLSQHSKAHHPSQPVRFGKLLLLLPSLRFITAERIELLFFRKTIGNTPMEKLLCDMFKN

Variants of: B1
Test: yeast two-hybrid; read off a plot

Row | Variant | response
1 | chain 1 MRREAVQRGRMPPTQPTHGQFALTNGDPLNCHSYLSGYISLLLRAEPYPTSRFGSQCMQPNNIMGIENICELAARMLFSAVEWARNIPFFPDLQATDQVALLRLTWSELFVLNAAQCSMPLHVAPLLAAAGLHASPMSADRVVAFMDHIRIFQEQVEKLKALHVDSAEYSCLKAIVLFTSDACGLSDVAHVESLQEKSQCALEEYVRSQYPNQPTRFGKLLLRLPSLRTVSSSVIEQLFFVRLVGKTPIETLIRDMLLSGSSFNWPYMAIQ [chain 1 I95A] | ~850 nmol/mg/min
2 | chain 1 MRREAVQRGRMPPTQPTHGQFALTNGDPLNCHSYLSGYISLLLRAEPYPTSRFGSQCMQPNNIMGIENICELAARMLFSAVEWAANIPFFPDLQITDQVALLRLTWSELFVLNAAQCSMPLHVAPLLAAAGLHASPMSADRVVAFMDHIRIFQEQVEKLKALHVDSAEYSCLKAIVLFTSDACGLSDVAHVESLQEKSQCALEEYVRSQYPNQPTRFGKLLLRLPSLRTVSSSVIEQLFFVRLVGKTPIETLIRDMLLSGSSFNWPYMAIQ [chain 1 R85A] | ~2100 nmol/mg/min
3 | chain 1 MRREAVQRGRMPPTQPTHGQFALTNGDPLNCHSYLSGYISLLLRAEPYPTSRFGSQCMQPNNIMGIENICELAARMLFSAAEWARNIPFFPDLQITDQVALLRLTWSELFVLNAAQCSMPLHVAPLLAAAGLHASPMSADRVVAFMDHIRIFQEQVEKLKALHVDSAEYSCLKAIVLFTSDACGLSDVAHVESLQEKSQCALEEYVRSQYPNQPTRFGKLLLRLPSLRTVSSSVIEQLFFVRLVGKTPIETLIRDMLLSGSSFNWPYMAIQ [chain 1 V81A] | ~960 nmol/mg/min
4 | chain 1 MRREAVQRGRMPPTQPTHGQFALTNGDPLNCHSYLSGYISLLLRAEPYPTSRFGSQCMQPNNIMGIENICELAARMLFSAVEWARNIPFFPDLQITDQAALLRLTWSELFVLNAAQCSMPLHVAPLLAAAGLHASPMSADRVVAFMDHIRIFQEQVEKLKALHVDSAEYSCLKAIVLFTSDACGLSDVAHVESLQEKSQCALEEYVRSQYPNQPTRFGKLLLRLPSLRTVSSSVIEQLFFVRLVGKTPIETLIRDMLLSGSSFNWPYMAIQ [chain 1 V99A] | ~640 nmol/mg/min
5 | chain 1 MRREAVQRGRMPPTQPTHGQFALTNGDPLNCHSYLSGYISLLLRAEPYPTSRFGSQCMQPNNIMGIENICELAARMLASAVEWARNIPFFPDLQITDQVALLRLTWSELFVLNAAQCSMPLHVAPLLAAAGLHASPMSADRVVAFMDHIRIFQEQVEKLKALHVDSAEYSCLKAIVLFTSDACGLSDVAHVESLQEKSQCALEEYVRSQYPNQPTRFGKLLLRLPSLRTVSSSVIEQLFFVRLVGKTPIETLIRDMLLSGSSFNWPYMAIQ [chain 1 F78A] | ~0 nmol/mg/min
6 | chain 1 MRREAVQRGRMPPTQPTHGQFALTNGDPLNCHSYLSGYISLLLRAEPYPTSRFGSQCMQPNNIMGIENICELAARMLFSAVEWARNIPFFPDLQITDQVALLALTWSELFVLNAAQCSMPLHVAPLLAAAGLHASPMSADRVVAFMDHIRIFQEQVEKLKALHVDSAEYSCLKAIVLFTSDACGLSDVAHVESLQEKSQCALEEYVRSQYPNQPTRFGKLLLRLPSLRTVSSSVIEQLFFVRLVGKTPIETLIRDMLLSGSSFNWPYMAIQ [chain 1 R103A] | ~330 nmol/mg/min

Variants of: B2
Test: yeast two-hybrid; read off a plot

Row | Variant | response
7 | chain 1 MRREAVQRGRMPPTQPTHGQFALTNGDPLNCHSYLSGYISLLLRAEPYPTSRFGSQCMQPNNIMGIENICELAARMLFSAVEWARNIPFFPDLQITDQVALLALTWSELFVLNAAQCSMPLHVAPLLAAAGLHASPMSADRVVAFMDHIRIFQEQVEKLKALHVDSAEYSCLKAIVLFTSDACGLSDVAHVESLQEKSQCALEEYVRSQYPNQPTRFGKLLLRLPSLRTVSSSVIEQLFFVRLVGKTPIETLIRDMLLSGSSFNWPYMAIQ [chain 1 R103A] | ~1900 nmol/mg/min
8 | chain 1 MRREAVQRGRMPPTQPTHGQFALTNGDPLNCHSYLSGYISLLLRAEPYPTSRFGSQCMQPNNIMGIENICELAARMLFSAVEWARNIPFFPDLQATDQVALLRLTWSELFVLNAAQCSMPLHVAPLLAAAGLHASPMSADRVVAFMDHIRIFQEQVEKLKALHVDSAEYSCLKAIVLFTSDACGLSDVAHVESLQEKSQCALEEYVRSQYPNQPTRFGKLLLRLPSLRTVSSSVIEQLFFVRLVGKTPIETLIRDMLLSGSSFNWPYMAIQ [chain 1 I95A] | ~2900 nmol/mg/min
9 | chain 1 MRREAVQRGRMPPTQPTHGQFALTNGDPLNCHSYLSGYISLLLRAEPYPTSRFGSQCMQPNNIMGIENICELAARMLFSAVEWAANIPFFPDLQITDQVALLRLTWSELFVLNAAQCSMPLHVAPLLAAAGLHASPMSADRVVAFMDHIRIFQEQVEKLKALHVDSAEYSCLKAIVLFTSDACGLSDVAHVESLQEKSQCALEEYVRSQYPNQPTRFGKLLLRLPSLRTVSSSVIEQLFFVRLVGKTPIETLIRDMLLSGSSFNWPYMAIQ [chain 1 R85A] | ~1200 nmol/mg/min
10 | chain 1 MRREAVQRGRMPPTQPTHGQFALTNGDPLNCHSYLSGYISLLLRAEPYPTSRFGSQCMQPNNIMGIENICELAARMLFSAVEWARNIPFFPDLQITDQAALLRLTWSELFVLNAAQCSMPLHVAPLLAAAGLHASPMSADRVVAFMDHIRIFQEQVEKLKALHVDSAEYSCLKAIVLFTSDACGLSDVAHVESLQEKSQCALEEYVRSQYPNQPTRFGKLLLRLPSLRTVSSSVIEQLFFVRLVGKTPIETLIRDMLLSGSSFNWPYMAIQ [chain 1 V99A] | ~2700 nmol/mg/min
11 | chain 1 MRREAVQRGRMPPTQPTHGQFALTNGDPLNCHSYLSGYISLLLRAEPYPTSRFGSQCMQPNNIMGIENICELAARMLFSAAEWARNIPFFPDLQITDQVALLRLTWSELFVLNAAQCSMPLHVAPLLAAAGLHASPMSADRVVAFMDHIRIFQEQVEKLKALHVDSAEYSCLKAIVLFTSDACGLSDVAHVESLQEKSQCALEEYVRSQYPNQPTRFGKLLLRLPSLRTVSSSVIEQLFFVRLVGKTPIETLIRDMLLSGSSFNWPYMAIQ [chain 1 V81A] | ~20 nmol/mg/min
12 | chain 1 MRREAVQRGRMPPTQPTHGQFALTNGDPLNCHSYLSGYISLLLRAEPYPTSRFGSQCMQPNNIMGIENICELAARMLASAVEWARNIPFFPDLQITDQVALLRLTWSELFVLNAAQCSMPLHVAPLLAAAGLHASPMSADRVVAFMDHIRIFQEQVEKLKALHVDSAEYSCLKAIVLFTSDACGLSDVAHVESLQEKSQCALEEYVRSQYPNQPTRFGKLLLRLPSLRTVSSSVIEQLFFVRLVGKTPIETLIRDMLLSGSSFNWPYMAIQ [chain 1 F78A] | ~40 nmol/mg/min

Variants of: B3
Test: yeast two-hybrid; read off a plot

Row | Variant | response
13 | chain 1 NTENVASQWLAGYAASRQLK | ~840 nmol/mg/min
14 | chain 1 NTENVYSQALAGYAASRQLK | ~130 nmol/mg/min
15 | chain 1 NTENVYSQWLAGAAASRQLK | ~0 nmol/mg/min
16 | chain 1 NTENAYSQWLAGYAASRQLK | ~190 nmol/mg/min
17 | chain 1 NTENVYSQWAAGYAASRQLK | ~0 nmol/mg/min
18 | chain 1 NTENVYSAWLAGYAASRQLK | ~900 nmol/mg/min
19 | chain 1 NTENVYSQWLAAYAASRQLK | ~1800 nmol/mg/min
20 | chain 1 NTENVYAQWLAGYAASRQLK | ~910 nmol/mg/min

Variants of: B4
Test: yeast two-hybrid; read off a plot

Row | Variant | response
21 | chain 1 S7A | ~2500 nmol/mg/min
22 | chain 1 L13A | ~0 nmol/mg/min
23 | chain 1 R8A | ~0 nmol/mg/min
24 | chain 1 F6A | ~0 nmol/mg/min
25 | chain 1 R11A | ~0 nmol/mg/min
26 | chain 1 L10A | ~0 nmol/mg/min
